Experimental data taken from article PMC3017645 (Journal of molecular biology, 2010).

T1: Nnf1p-6xHis (budding yeast (S. cerevisiae), UniProt P47149 1-201)
T1 sequence (looked up): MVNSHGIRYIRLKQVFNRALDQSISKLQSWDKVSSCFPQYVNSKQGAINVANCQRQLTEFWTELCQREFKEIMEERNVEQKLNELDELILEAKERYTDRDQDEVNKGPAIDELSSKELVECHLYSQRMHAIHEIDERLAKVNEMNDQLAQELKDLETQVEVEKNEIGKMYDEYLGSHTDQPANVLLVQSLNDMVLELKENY


Target: T1, Nnf1p-6xHis
Test: co-purification of co-expressed subunits

| Binder | stoichiometry N |
| --- | --- |
| Mtw1p (natural protein, budding yeast (S. cerevisiae), UniProt P39731 1-289, looked up) MSAPTMRSTSILTEHLGYPPISLVDDIINAVNEIMYKCTAAMEKYLLSKSKIGEEDYGEEIKSGVAKLESLLENSVDKNFDKLELYVLRNVLRIPEEYLDANVFRLENQKDLVIVDENELKKSEEKLREKVNDVELAFKKNEMLLKRVTKVKRLLFTIRGFKQKLNELLKCKDDVQLQKILESLKPIDDTMTLLTDSLRKLYVDSESTSSTEEVEALLQRLKTNGKQNNKDFRTRYIDIRTNNVLRKLGLLGDKEDEKQSAKPDARTQAGDIVSIDIEEPQLDLLDDVL | 1 |
| Dsn1p (natural protein, budding yeast (S. cerevisiae), UniProt P40568 1-576, looked up) MSLEPTQTVSGTPPMLHQRTHKQVYPLRMETIPILESDSKATLQSNEPTQKDEEETEYFENKQSVSNLSPDLKFKRHKNKHIQGFPTLGERLDNLQDIKKAKRVENFNSSAPIADDNHSGDATANATANATANATANVNASAMPAPYMPYYYYYHPMNAPTPAMIPYPGSPMHSIMPNSSLQPFYSQPTAAGGPDMTTPQNISSSQQLLPAPQLFPYGSFHQQQLQQPHYIQRTRERKKSIGSQRGRRLSMLASQANGGSTIISPHKDIPEEDFYTVVGNASFGKNLQIRQLFNWCLMRSLHKLELKAKNQEEEGELEHLTKKSKLESTKAETDYVDPKRLAMVIIKEFVDDLKKDHIAIDWEDEEKYEDEDEEKILDNTENYDDTELRQLFQENDDDDDDDDEVDYSEIQRSRRKFSERRKALPKEPKKLLPNSKNVENTKNLSILTSKVNAIKNEVKEWAVTLDTSRPDLEWQELTSFSSQPLEPLSDTEEPDLAIADVETKLETKVDELRYQSHILNSHSLALNEITNSKVNKLNIETMRKISSETDDDHSQVINPQQLLKGLSLSFSKKLDL | 1 |
| Nsl1p (natural protein, budding yeast (S. cerevisiae), UniProt Q12143 1-216, looked up) MSQGQSKKLDVTVEQLRSIYHQFHDILEEKTDLHLPKKEYDDDAVRREVQIQLQEFLLSAMTMASKSLEVVNADTVGKTVKQLIMESQEKYMEPFDLDLNEQVRKMYQEWEDETVKVAQLRQTGPAKINEVYNNSKDEYLAQLDGRIGVLQARMMQQQSADHDDSTDDADDHINWEHIKQDYVASLNELYQTQQDLPKVRYNVEKVKRLMDFLEED | 1 |
